The assay addresses microtubules (polymers of α/β-tubulin) of the co-sedimentation and negative-stain EM experiments. The assay is described as follows: co-sedimentation.

Chain of microtubules (polymers of α/β-tubulin) of the co-sedimentation and negative-stain EM experiments (P68363 whole entry, chain 1 of 2): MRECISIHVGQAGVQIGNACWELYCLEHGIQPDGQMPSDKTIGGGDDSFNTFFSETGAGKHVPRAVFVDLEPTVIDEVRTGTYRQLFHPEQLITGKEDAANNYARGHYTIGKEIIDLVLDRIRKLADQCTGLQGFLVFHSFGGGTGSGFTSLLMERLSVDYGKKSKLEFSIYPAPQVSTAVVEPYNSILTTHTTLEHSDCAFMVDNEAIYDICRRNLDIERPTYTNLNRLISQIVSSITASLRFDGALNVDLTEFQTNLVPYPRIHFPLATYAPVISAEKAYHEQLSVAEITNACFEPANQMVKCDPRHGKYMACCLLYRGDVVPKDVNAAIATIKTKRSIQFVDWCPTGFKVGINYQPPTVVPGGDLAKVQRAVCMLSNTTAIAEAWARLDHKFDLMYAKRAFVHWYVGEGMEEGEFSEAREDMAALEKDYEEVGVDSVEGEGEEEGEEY
Chain of microtubules (polymers of α/β-tubulin) of the co-sedimentation and negative-stain EM experiments (A8K068 whole entry, chain 2 of 2, further chain): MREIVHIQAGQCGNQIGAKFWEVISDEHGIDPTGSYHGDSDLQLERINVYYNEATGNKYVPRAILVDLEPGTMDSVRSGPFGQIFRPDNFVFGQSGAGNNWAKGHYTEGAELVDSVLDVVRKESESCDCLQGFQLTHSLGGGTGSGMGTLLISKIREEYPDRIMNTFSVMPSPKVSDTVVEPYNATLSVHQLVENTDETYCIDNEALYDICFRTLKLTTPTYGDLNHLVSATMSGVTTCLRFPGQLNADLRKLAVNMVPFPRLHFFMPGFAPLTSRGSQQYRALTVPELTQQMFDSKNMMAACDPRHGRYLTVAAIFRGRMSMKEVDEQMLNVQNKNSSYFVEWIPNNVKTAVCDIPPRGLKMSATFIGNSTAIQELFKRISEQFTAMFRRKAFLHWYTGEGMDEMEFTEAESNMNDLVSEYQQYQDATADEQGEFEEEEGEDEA

B1: Hice1-MTBR (Hice1 microtubule-binding region, a.a. 1–141), Q9BT25 1-141 (domain or fragment)
chain: MADSSGRGAGKPATGPTNSSSAKKKDKRVQGGRVIESRYLQYEKKTTQKAPAGDGSQTRGKMSEGGRKSSLLQKSKADSSGVGKGDLQSTLLEGHGTAPPDLDLSAINDKSIVKKTPQLAKTISKKPESTSFSAPRKKSPD
As usually defined, the Kd is the concentration at which binding is half-saturated. B1: the Kd was determined as 9.33 µM.
